Measured values as given in the domain aggregation screens of Martell et al. (2025).

Assay: soluble fraction after stress (log2 fold change); higher = more stays soluble; pooled small domains, quantitative proteomics
Settings: stress: 50 degC
How it was run: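 Pooled custom libraries of small protein domains were measured in a high-throughput format, with quantitative proteomics as the read-out. Each library was stressed at 50°C. Aggregation propensity is given as the base-two logarithm of the fold change in how much of each protein stays soluble after the stress. Higher values mean a larger share of the protein remains in solution.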

Sequence	soluble fraction (log2)
HMYELREGDVVSVRILSQTGQNSYIASFAGGRFSVTSERAFAPGTVFSASVSLKDGTLVLSPL	-0.568
HMVNTVEVQGNTIYSAEEIRSASGIQKGDNLFTLNKEAAAGSIKASLPYVETVSIIRFLPDKIVIEVKE	-0.473
HMPSPFYIMDEVEAALDDTNLGRLITLFEELRDSSQLIVITHQKKTMEIADALYGVTMRGDGITTVVSQRL	-0.343
HMENVLFVNVLSMTVRELAEMMKIPVNKIIQDSFSKGIMMNPNQRLEYDNFAELAKKYGITVKI	-0.879
HMTATSKKAAWDEVNKIFPTDYERSAAESERAGYAIFRSTAEGVNAWISDLGDRLEINLPDGKTVNIWIEE	-0.282
HMQPQYSVLFSNIEEKDGGSIITLLQQGNVPYKVENGGTTILVPANRANELRLTLAAQGLPK	-0.0124
HMPGMLVVYVTGAVRQPGRMVTLAAGSRVSDAIDAAGGLADDADAQALNLSARLNDGDLVHVPSALD	0.0161
HMDQHERQQLLIHIAGGEREALAELYQRTRSAVYGLALSYLKNAHDAQDLTRDVYVQVWDRA	0.344
HMSLEDYVIIKNKTVKVYETEFDGAPVVTSSSVGQKLILVEYNDNFAKILYRAKDGLDYVGYIKRKDVYVR	-2.4
HMTGGMVTYIIEKGEGFFSLERKFGLSENELIKLNPSLKSGLKSEMQINIPKENYDRYVASS	-0.0276
HMKMVEIDYGKFLTMLDTGKVKSVEIENNRIAINPSSSKDKNIYITGRMDDPELVDRLKNAKVEFTKVIP	0.261
HMAWAVRAGEGVLIRAGQPGFSATTRGTALSNGAIGEGVRVRNLGSGKEIQAWVVDKGEVETR	0.0168
HMNSSTVDLAKEFLIDLLSSVEKMPASEVQEEAKNAGYSVASIRRAKDNLNIKPFKDGSAWYWKLPSIFK	-0.114
HMVDPWLEQVHRASAAYATAHGSARIPTTHPDLGWKVVRVRQRHRKGLLSDEWVAKFEALPGWTWEPK	-0.282
HMNSTNYQVIITANGGLNIRAGASTAYARIGGYAKGTVVTILAESNGFGKTDKGWISLNYTSKDLD	-3.07
HMGRKIDDPSSMTGAEKAAVILLALGDEQRQLWEMMDDEEIRVVSQAMVNLGNVTSGAVEKLIMEFVGSMS	-0.243
HMGPNPLTEREQEILQLARTGEPVARLAKRLFLSPGTVRNHLSSAIGKLGAANRVEAAQFATERGW	0.0816
HMNSLPFSNFMNEVEAGRVVEVKIQGNNISGVLANGKTFSTYSPNYPELVEKLSSNGVSIVATPQ	0.153
HMQAGNAVEQYPTIGRLEEVTLGRSQPGAPIGERLSTLETVVFKRNFNDDSLFDRTERLKKTILGG	0.0575
HMVSAEQNTLEFIKENVKEDVIEDDIEFYKSLLEDWSVEVDNSSKLLDPGNNNSLLAVIAYSIENEL	-0.0399
HMDAKQLQSLKNNNEQLAGFIVRLTNFYEGLSPDIDAELSKLRSHLSGKVDYTLATVSINKINQLFMLEP	-2.6
HMVSLEEIINDLTSRIQTAVKMRFSDFVQNRKERVGVIVSFLGMLELVKQGIIDIKQEGHFADIEMETA	-0.296
HMGPSLDAVREQIRDLIAEEDKSAPYSDLSLVAELEKRGIHISRRTIAKYRGEMGIPNSDQRRYF	0.0495
HMANPMFAEIKKVQKQLNEMGYQAGPADGLWGNKTENAVKLLLSDNNLKWDGTFDQNEIKIIEEIFLSND	-0.256
HMWDEMKDQKLVEALLLLREDERKLIYQHVFEERTFDDISRINGLPPYKVKGIYYYAIRKIRKWMG	-1.51
HMLPPHMEVRAIMILDKRPMALMNIEGEGDGLIVSPGYRFGDGRGRVVSITQTKVVVLWAGTSMEL	-2.28

Sequence	soluble fraction (log2)
HMLHSEDATVVRQAIPLLERHVDAATVAVARRNLAQLEQFGRYPRRNQALGRISNPAENAYLRAER	0.0897
HMDRSLYVGDAVGFDSARGLMEIEVKNKFSVVAVSLKKKPSGNFITPLLRMEKKKGEAVTVAPGSGHR	-0.33
HMSEYITEGWLREKFGLGWGTEVHLPLDSRLTPAAHQLLEERKIVIKYIDAEGRVFNPDKSGEEAPVQ	0.0587
HMQPDFLDAKASLALLGVRPQTLYAYVSRGAIRSVPQPGTKAHLYSRSDIERVMARAAARAG	-1.12
HMDFRVGVWVELVQQRRSVRTQLTWVSPQHTLFLFTAKDGSTQSMTLRMRDKLLAEGNLRIVAPPSR	-2.23
HMVNIEAEVGRRLRQLRARRGLSLRALADLSGLNVNTLSLIENSKTSPSVSTLQQLARSLQVPITTFFESD	-0.447
HMSFYSVVISQDGSMLVAENRNEIYSNEELLELASEVNEKTGTIGTIGSLMYYKADKGGYTLITFLDNS	-3.02
HMFDTVFIVRKTSDKPLDGLRTYLNSIGDSLVIGEDDEAFKVHVHTNHPGKVLEEAITYGALQTVKIENMR	-0.966
HMNEWSIDINLADEKQWTAKTKLSPAIIQNIIRYKNYLGGFTNLNQIKKVYGFTEANYYLLKPHLQLGK	-0.909
HMEHDTVLSKVFRRLREAHVPLSLDDIYQGLRKTVNNNSEIREKIVTLQERGLVAEILGPKGGKKYVAKPT	-0.105
HMQIKNVDYGTFLDMLDEKNVKEVEIEDEQIVFTDNADPTGYYTTGRMEDPDLVDRLHNSGATFSAI	-0.12
HMPHILEITSSKILDELQDEKKMVYFHFEKQSNQYVYRLIFNSKNELMEFKKSLEKNSSILDVRADM	0.216
HMHHSGLRQSQFDEISRQIRSLLEMESLSLQELKTRMEDVPEEQLTKVVSYLLSEEIIRQENGRLQ	-0.0768
HMGGPTARQMEVLSLIAQGLPNKRIADELGIAERTVKLHITALLDSLGARNRTHLLVVARERGM	-2.21
HMSQQEAQLNSLVKIYESMKPKDAARIFDTLDMDVLLDVVMRMKEARSAAVLAEMTPDRAKEVTLQLAD	-0.61
HMEAISIYPNPTDNELHLSTSVQEVRIYNMYGIEVTRAANTDRLAVSHLPKGVYLVHADGAVLKMIK	-1.26
HMRNANENTLKDLPVAVPNIHVSNIEEKKDFHLIQLEYSQEFDPREDLFNFAVNSSWVILKMTPT	0.422
HMEVAVQFIEFKIPENHAWIGKEIREITFPPESILVLIIRDGKKLVPNGKTVLKEGDSLILSGKASD	-0.538
HMDYKYYIVKEPMVVKNLELPVGTRIVYFNTSLFGDSESSRPLKEKNIYQIFFPDDKPLIWGGVPVSLIER	-1.97
HMETPSNTAGITHATSDGYIFKGESDIIGRNSFGFIVKHGSHNHIIPFDSLRGTKWEYLINKYT	0.21
HMTGIQDVPALETRRVGNTFFFDRATDVQVYDLQGRLLQQARKVTSVSIGHLQQGVYVLTDGRASVKVQ	-1.23
HMAMDYTVVHSDRRTIAIQIQRDGRVVVRAPYAATAEDIRRVVDSHRDWVEKTVRRQQEQLAAS	-0.0261
HMQALTLVGQDAKDAKAALDAVDIQPAKTETDRYIYVLTEQQAQELGRTVDALYGVEGSLTLILEV	0.0301
HMARVSGIDLPKNKRGYIGLTYIYGIGRSTALHILNSAGVDPEKKVHEWNDDETTAIRNIINAEIKVEGAL	-0.645
HMTTQTGTVKWFNEGKGFGFIAPDDGGKDLFAHFKEIQGTGFKTLAENQRVEFEVTQGQKGPQASKI	-0.0807
HMRDKSITFSEFVKLLDEGQIQKVTLTGNEILGTQKSGDKFRTYAPPQYEGLGNKLVERSVEVTAKE	0.207

Sequence	soluble fraction (log2)
HMQMKDRILRIMEHEGISPSKFAEEIGIQRSAMSHIISGRNNPSLDVLTKIMQRFTYVDTDWLLFGKGSMV	-0.737
HMRQSSLRTRELLIDAARQLFARFGVEKTTMNDIAEASKRGRRTVYMYFNSKSDVFYAVVGRE	-0.212
HMHPARITATVRVGEGDLVDIEREAELGGPIHSKGVMILSSFLGARYARTVPLSLSASLVFEQSY	0.0114
HMLMNADVLVKYQEDHWIVISEKASQASDTFDKKEQAVERAKEIAKNKNSSVKVYKQDGTLQDTFDYS	0.122
HMTGEEVLIMLGEKMKLIRNYNGYSQRQIAEILKIERSTYASYETGRNRPDIFAVQRFAKIFNVSVDYIL	-0.118
HMRVTEIDYGAFMKMIEEKNIGEVKVEDYEIVFTDKDNKNIYKTGIMDDPDLTQRLYNSGAVFA	0.0247
HMDFTHFTLKQDGKFAGSSNLLHQAVIAAARLAAETGKPVTVMAHVRGGGTRKAVFNPDGTNDKIWN	-0.61
HMNMLGEQVRNIRKSRGFTLKALAEQTGLSIGYISQIERNLTDPSLSTLRKISAALDVPTYLFMG	-1.55
HMDPERLDQLQNPDPAVRREAIIALGRSKDLAALPELAKVYKNDPVPELRELARQAGRYIQQENRP	0.126
HMIPDAIDPDGRFKWRAGEAVVGFGRHAGEPLKKIAIENPEFLRWILKADFSTDVKKIASDALKGYFPEK	-0.23
HMRQHHMIISTKLGTPKEELAKLVSGFEDQGLRVSVITGTDYTVIGLVGDTTHLDEKRIRANPYVDNVQRV	-0.0184
HMSTSIADNSSITYKVRKGDSLASIAKRHGVNINDVMRWNSVITKASQIQPGDMLTLYVRDS	0.026
HMPETYVVFSKDGYANLRRGTTINSEILDVLDNGEYVTKLDEVGEWYRVEYADFDGGYIHKSQLKNI	-0.252
HMQVTPQVLRLLDVLGDKELSLRQIAEALGLSDRKNIMRNYVVPALDSGRVVRTVPNKPNSRFQKYRK	-0.404
HMASENISYSQFINQVKNSMVESVSIEADGKTISGKYKSGSSFVTYGLNDPKLVDDLLSNNVEIL	0.159
HMAPETALQILEQIQINPKVTMTDLANLTGYSRRWVAQTMKQLQELNVIKRVGSTKTGYWEIIA	-0.138
HMKQLLHLVIGGELKDVRGIEFEDLSKIDFVGAFPSYKAAYDAWKNAAQRTVDNAEMRYFILHAHR	-1.79
HMREVEAPRDLLAALGERPGALDAWKALSFTHQREYVEAIEDARKPETRERRIANAVKMVAERS	0.285
HMNSHKIIDRLNQMITEKDLSEEMPAITEAFKNNERSAEDLKKYVAENLSKKLNAEEREKFVSLILQYRN	0.039
HMSSLTDNFVKALSYYLALSGKSKKEVADGIGIPPTTFSSWSNGKHLPDMDRLQNLATYLGAPVSEFFDFT	-0.0831
HMTSGPAWPALSAQQRSVLAPLQRDWHTIDAARKAKWLEVAARFPSMPAEERQRVQERMAEWA	-0.0518
HMNETNKMPNLVNQTDSSAIAQLNAMELGLKITTKEESSETVLAGYVIRTEPAADTELTKNQAVTVYVS	0.00616
HMDVLTARENEVLQLLAKGMSNKEIASVLVITEKTVKAHVSSILSKLNLSDRTQAALYAVKNGI	-0.151
HMSNIQLVENLYRLRKAHHYTQQEISDLLNISRQAYSNYETSKRTPDLDSLMRLADIYGVSLDQLVNHP	-1.45
